In this experiment the target is T1, IFITM3-wt fused to SCFP or SYFP (interferon-induced transmembrane protein 3) (UniProt Q01628 1-133).
T1 construct: interferon-induced transmembrane protein 3 (IFITM3), wild type; One molecule stands for both FRET copies (SCFP3A fusion and SYFP2 fusion); also called SxFP-IFITM3; IFTIM3; source: 293T, transiently transfected, in cells; not shown: SCFP3A or SYFP2, N-terminal, kept
Briefly: FRET or BRET; FACS-FRET in 293T cells at 48 h post transfection with titrated amounts of plasmids, total DNA kept constant with empty pCAGGS (Figure 2D). The following applies: partners not purified. A general note: In BRET a luciferase serves as donor, and the signal depends on an acceptor being close.

The record followed here is article PMC6719045, “Analysis of IFITM-IFITM Interactions by a Flow Cytometry-Based FRET Assay” (International Journal of Molecular Sciences, 2019).

T1 sequence (Q01628 whole entry, the tested form may be a part): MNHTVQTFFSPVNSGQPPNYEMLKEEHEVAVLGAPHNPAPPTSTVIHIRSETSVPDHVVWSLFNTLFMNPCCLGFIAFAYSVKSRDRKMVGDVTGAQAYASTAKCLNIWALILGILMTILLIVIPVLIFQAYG

B1: IFITM1 fused to SCFP or SYFP (interferon-induced transmembrane protein 1) (natural protein, UniProt P13164 1-125, looked up)
chain: MHKEEHEVAVLGPPPSTILPRSTVINIHSETSVPDHVVWSLFNTLFLNWCCLGFIAFAYSVKSRDRKMVGDVTGAQAYASTAKCLNIWALILGILMTIGFILLLVFGSVTVYHIMLQIIQEKRGY
notes: interferon-induced transmembrane protein 1 (IFITM1); One molecule stands for both FRET copies: one carries SCFP3A (donor), the other SYFP2 (acceptor); also called SCFP3A-IFITM1; SYFP2-IFITM1; source: 293T, transiently transfected, in cells; not shown: SCFP3A or SYFP2, N-terminal, kept
B1: the “percent of FRET-positive cells” value was approximately 20%.
